Literature values as cited in patent US20060166927A1, “Compounds that bind to the interferon-gamma, preparation method thereof and medicaments containing same” (priority 2002, published 2006).

B1: γ-IFN: polypeptide comprising, for example, 143 amino acids in humans, which is part of the cytokine family (protein, UniProt P01579 24-161, looked up)
Interferon gamma: QDPYVKEAENLKKYFNAGHSDVADNGTLFLGILKNWKEESDRKIMQSQIVSFYFKLFKNFKDDQSIQKSVETIKEDMNVKFFNSNKKKRDDFEKLTNYSVTDLNVQRKAIHELIQVMAELSPAAKTGKRKRSQMLFRG
For B1, the “proportion of injected γ-IFN rapidly bound by molecules of heparin/heparan sulphate type” value (at the surface of the vascular endothelium) is given as “approximately 90%”, the “cytokine disappearing from the circulating blood” value (intravenous injection, during the first 5 to 10 minutes) is given as 90% and the half-life time (intravenous injection, first phase of biexponential elimination) is given as roughly 1 min. The inactivation in vivo (γ-IFN alone) was “rapidly inactivated by proteolytic degradation of its C-terminal end”.
